Data on one molecule can be found in patent publication US20220041686A1 (Stanford University, published 2022).

Common to all, as to test: quantification of the flow cytometry plots of panel A (B7H3 Fc staining, CAR MFI), with or without 3 µM grazoprevir [Cont.) B]
On the technique in general: A flow cytometer gives signals particle by particle.

Assay [1] deals with T1, B7H3-SNIP-scFv CAR (extracellular; cis).
T1 construct: Only the full-length (uncleaved) CAR carries the scFv and is stained by B7H3 Fc; also called B7H3-cis SNIP scFv; B7H3-cis SNIP scFv CAR

The target in assay [2] is T2, 066.
T2 construct: Construct named only by number on the sheets; also called B7H3-cis SNIP scFv CAR with cleavage site 066

Assay [3] addresses T3, 065.
T3 construct: Construct named only by number on the sheets; also called B7H3-cis SNIP scFv CAR with cleavage site 065

B1: B7H3-Fc (Fc fusion)
chain: LEVQVPEDPVVALVGTDATLCCSFSPEPGFSLAQLNLIWQLTDTKQLVHSFAEGQDQGSAYANRTALFPDLLAQGNASLRLQRVRVADEGSFTCFVSIRDFGSAAVSLQVAAPYSKPSMTLEPNKDLRPGDTVTITCSSYQGYPEAEVFWQDGQGVPLTGNVTTSQMANEQGLFDVHSILRVVLGANGTYSCLVRNPVLQQDAHSSVTITPQRSPTGAVEVQVPEDPVVALVGTDATLRCSFSPEPGFSLAQLNLIWQLTDTKQLVHSFTEGRDQGSAYANRTALFPDLLAQGNASLRLQRVRVADEGSFTCFVSIRDFGSAAVSLQVAAPYSKPSMTLEPNKDLRPGDTVTITCSSYRGYPEAEVFWQDGQGVPLTGNVTTSQMANEQGLFDVHSVLRVVLGANGTYSCLVRNPVLQQDAHGSVTITGQPMT
notes: Staining reagent for flow cytometry; not shown: Fc part
For B1, the “fold CAR MFI, + Drug over - Drug” value in assay [1] is 70 fold; in assay [2], 129 fold; in assay [3], 157 fold.
